From patent publication US20250236642A1 (NEC, published 2025)

Tests used:
[1] = molecular target: T1, HLA-A*02:01 molecule; experiment: flow cytometry, T2 cells
T1 construct: MHC class I molecule on T2 cells (ATCC); also called product of an HLA-A*02:01 gene; allele A*02:01

[2] = molecular target: T2, HLA-A*24:02 molecule; experiment: flow cytometry, C1R-A24 cells;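 further: Read-out was the amount of peptide–MHC complex on each cell, taken as the fluorescence intensity of a bound fluorescent antibody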
T2 construct: MHC class I molecule on C1R-A24 cells, endogenous peptide and b2m stripped at pH 3.3, purified b2m added back; also called product of an HLA-A*24:02 gene; allele A*24:02
Source text: Thereafter, the number of MHC-peps for each C1R-A24 cell (proportional to a fluorescence intensity of the fluorescent antibody) was quantitatively measured using a fluorescence cell analyzer FACScan (Becton-Dickinson).

Row | Binder | log Kd [1] | log10 Kd (M) [2]
1 | VMSHHGEKL (synthetic 9-mer derived from Helios; also called A13) [peptide of SEQ ID NO: 19] | -5.08 | -6.1
2 | SLVLTWAAL (synthetic 9-mer derived from EVC2) [peptide of SEQ ID NO: 14] | -5.63 | -5.31
3 | VLLQQFQTA (synthetic 9-mer derived from EVC2) [peptide of SEQ ID NO: 15] | -4.71 | -5.55
4 | MLPQTPSHL (synthetic 9-mer derived from c-Myb) [peptide of SEQ ID NO: 24] | -5.58 | -7.14
5 | LLNPNRQTI (synthetic 9-mer derived from CADM1) [peptide of SEQ ID NO: 23] | -5.24 | -6.22
6 | ALRPAPALL (synthetic 9-mer derived from EVC1) [peptide of SEQ ID NO: 26] | -6.11 | -6.4
